According to patent US12202907B2, “Nucleic acids encoding and methods of producing proteins comprising antibody chains” (Innate Pharma, priority 2018, dated 2025):
Entries after “also recorded” stand apart in the source; their conditions may differ.

How the values were obtained:
[1] = molecular target: T1, CD39 mutants transfected in Hek-293T cells (Homo sapiens, UniProt P49961, E142K/M139A/R138A); test: Epitope mapping: binding to CD39 mutants by flow cytometry; details: mutant 19: R138A, M139A, E142K
T1 construct: expressed in transfected cells; host or cells: HEK293T
T1 sequence (P49961 1-510 R138A/M139A/E142K): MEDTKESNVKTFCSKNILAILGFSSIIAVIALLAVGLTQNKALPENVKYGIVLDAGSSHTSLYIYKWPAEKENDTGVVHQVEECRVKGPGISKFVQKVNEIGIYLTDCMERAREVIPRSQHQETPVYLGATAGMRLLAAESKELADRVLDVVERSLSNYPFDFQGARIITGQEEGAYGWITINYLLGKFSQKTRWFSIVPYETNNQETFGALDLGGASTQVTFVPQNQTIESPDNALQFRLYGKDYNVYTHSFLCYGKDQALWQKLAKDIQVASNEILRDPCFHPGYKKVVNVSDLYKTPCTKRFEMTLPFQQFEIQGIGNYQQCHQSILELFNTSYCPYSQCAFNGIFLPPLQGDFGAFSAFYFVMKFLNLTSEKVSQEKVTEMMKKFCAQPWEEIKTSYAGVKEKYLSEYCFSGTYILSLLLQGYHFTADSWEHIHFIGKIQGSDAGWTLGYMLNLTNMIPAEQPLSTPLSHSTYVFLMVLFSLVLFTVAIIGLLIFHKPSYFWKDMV
Procedure: CD39 mutants were generated by PCR. The sequences amplified were run on agarose gel and purified using the Macherey Nagel PCR Clean-Up Gel Extraction kit (reference 740609). The purified PCR products generated for each mutant were then ligated into an expression vector, with the ClonTech InFusion system. The vectors containing the mutated sequences were prepared as Miniprep and sequenced. After sequencing, the vectors containing the mutated sequences were prepared as Midiprep using the Promega PureYield™ Plasmid Midiprep System. HEK293T cells were grown in DMEM medium (Invitrogen), transfected with vectors using Invitrogen's Lipofectamine 2000 and incubated at 37° C. in a CO2 incubator for 48 hours prior to testing for transgene expression. The targeted amino acid mutations in the table 1 below are shown using numbering of SEQ ID NO: 1.
In order to define the epitopes of anti-CD39 antibodies, we designed CD39 mutants defined by substitutions of amino acids exposed at the molecular surface over the surface of CD39.
Dose-ranges of I-394 (10-2.5-0.625-0.1563-0.0391-0.0098-0.0024-0.0006 μg/ml) are tested on the 20 generated mutants by flow cytometry. […] Mutant 5 contains amino acid substitutions at residues Q96, N99, E143 and R147. […]

[2] = molecular target: T2, soluble recombinant human CD39 protein (Homo sapiens, UniProt P49961); test: Inhibition of the enzymatic activity of soluble CD39 (Cell Titer Glo, cell-free); type: biochemical
T2 construct: made in house; host or cells: CHO cells
T2 sequence (P49961 with tags, fused parts or gaps): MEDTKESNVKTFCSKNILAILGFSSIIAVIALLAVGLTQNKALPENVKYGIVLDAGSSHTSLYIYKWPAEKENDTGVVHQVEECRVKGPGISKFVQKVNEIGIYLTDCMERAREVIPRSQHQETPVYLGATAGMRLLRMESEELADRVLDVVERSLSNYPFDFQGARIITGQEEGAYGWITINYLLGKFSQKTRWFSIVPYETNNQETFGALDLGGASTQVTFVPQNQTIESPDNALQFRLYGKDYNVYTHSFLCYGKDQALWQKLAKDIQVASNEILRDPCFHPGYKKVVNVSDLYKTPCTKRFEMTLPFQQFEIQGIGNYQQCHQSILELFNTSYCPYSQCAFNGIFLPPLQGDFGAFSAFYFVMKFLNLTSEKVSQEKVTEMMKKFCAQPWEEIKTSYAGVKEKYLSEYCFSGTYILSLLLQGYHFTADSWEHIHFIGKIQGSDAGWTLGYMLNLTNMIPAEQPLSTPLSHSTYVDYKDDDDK
Procedure: The inhibition by antibodies of the enzymatic activity of soluble CD39 protein produced was evaluated using Cell Titer GIo™ (Promega, reference G7571) that allows assessment of ATP hydrolysis through use of a reagent that generates a luminescent signal proportional to the amount of ATP present. In this way, inhibition of the soluble-CD39-meidated ATP hydrolysis can be assessed. Briefly, dose ranges of anti-CD39 antibodies from 100 μg/ml to […] were incubated with 400 ng/ml of soluble recombinant human CD39 protein having the amino acid sequence described in the Methods section (SEQ ID NO: 44), for 1 h at 37° C. 20 μM ATP was added to the plates for 30 additional minutes at 37° C. before addition of CTG (Cell Titer Glo) reagent. Emitted light was quantified using an Enspire™ luminometer after a short incubation period of 5 min in the dark. Anti-CD39 antibody efficacy was determined by comparing emitted light in presence of antibody with ATP alone (maximal light emission) and ATP together with soluble CD39 protein (minimal light emission).

Question: How did the “binding to cells expressing mutant 19 of CD39” value [1] turn out when “I-394: anti-CD39 antibody, VH SEQ ID NO: 6, VL SEQ ID NO: 7, human IgG1 Fc with L234A/L235E/G237A/A330S/P331S” was run?
Answer: complete loss of binding

Question: What about the “inhibition maximum, soluble CD39” value [2] of the same substance?
Answer: 74.9%

Question: What about the “potency ranking for inhibition of soluble CD39” value ([2]; FIG. 2B, comparison of BY40, I-394, I-395, I-396) of the same substance?
Answer: greatest potency

Question: And the “inhibition of the enzymatic (ATPase) activity of soluble CD39 protein” value ([2]; qualitative)?
Answer: strong inhibition of the enzymatic activity of soluble CD39; also recorded: inhibits the enzymatic activity of soluble CD39 protein
